Holding throughout (conditions): Homo sapiens
Substrate in data set [1]: CC[C@H](C)[C@H](NC(=O)[C@@H](NC(=O)[C@@H]1CCCN1C(=O)[C@H](CC(=O)O)NC(C)=O)[C@@H](C)O)C(=O)N[C@@H](Cc1cc(=O)oc2cc(OP(=O)(O)O)ccc12)C(=O)N1CCC[C@H]1C(=O)N[C@H](C(=O)N[C@@H](CC(C)C)C(=O)N[C@@H](CC(=O)O)C(N)=O)C(C)C
Description: (§1) Substrate activity at SHP2 (unknown origin) expressed in Escherichia coli BL21 (DE3) assessed as Kcat/Km ratio incubated for 60 mins by fluorescence based assay
Substrate in data set [2]: CC[C@H](C)[C@H](NC(=O)[C@@H](NC(=O)[C@H](CC(=O)O)NC(=O)[C@H](CC(=O)O)NC(C)=O)[C@@H](C)O)C(=O)N[C@@H](Cc1cc(=O)oc2cc(OP(=O)(O)O)ccc12)C(=O)N[C@@H](CC(=O)O)C(=O)N[C@H](C(=O)N[C@@H](CC(C)C)C(=O)N[C@@H](CC(=O)O)C(N)=O)C(C)C
Description: as §1
Substrate in data set [3]: CC[C@H](C)[C@H](NC(=O)[C@@H](NC(=O)[C@@H]1CCCN1C(=O)[C@H](CC(=O)O)NC(C)=O)[C@@H](C)O)C(=O)N[C@@H](Cc1cc(=O)oc2cc(OP(=O)(O)O)ccc12)C(=O)N1CCC[C@H]1C(=O)N[C@H](C(=O)N[C@@H](CC(C)C)C(=O)N[C@@H](CC(=O)O)C(N)=O)C(C)C
The source holds these as a separate data set.
Description: (§2) Substrate activity at SHP2 (unknown origin) expressed in Escherichia coli BL21 (DE3) assessed as Kcat incubated for 60 mins by fluorescence based assay

Substrate in data set [4]: CC[C@H](C)[C@H](NC(=O)[C@@H](NC(=O)[C@H](CC(=O)O)NC(=O)[C@H](CC(=O)O)NC(C)=O)[C@@H](C)O)C(=O)N[C@@H](Cc1cc(=O)oc2cc(OP(=O)(O)O)ccc12)C(=O)N[C@@H](CC(=O)O)C(=O)N[C@H](C(=O)N[C@@H](CC(C)C)C(=O)N[C@@H](CC(=O)O)C(N)=O)C(C)C
This is another data set of the same source.
Description: as §2

Substrate in data set [5]: CC[C@H](C)[C@H](NC(=O)[C@@H](NC(=O)[C@@H]1CCCN1C(=O)[C@H](CC(=O)O)NC(C)=O)[C@@H](C)O)C(=O)N[C@@H](Cc1cc(=O)oc2cc(OP(=O)(O)O)ccc12)C(=O)N1CCC[C@H]1C(=O)N[C@H](C(=O)N[C@@H](CC(C)C)C(=O)N[C@@H](CC(=O)O)C(N)=O)C(C)C
This is another data set of the same source.
Description: (§3) Substrate activity at SHP2 (unknown origin) expressed in Escherichia coli BL21 (DE3) assessed as Km incubated for 60 mins by fluorescence based assay

Substrate in data set [6]: CC[C@H](C)[C@H](NC(=O)[C@@H](NC(=O)[C@H](CC(=O)O)NC(=O)[C@H](CC(=O)O)NC(C)=O)[C@@H](C)O)C(=O)N[C@@H](Cc1cc(=O)oc2cc(OP(=O)(O)O)ccc12)C(=O)N[C@@H](CC(=O)O)C(=O)N[C@H](C(=O)N[C@@H](CC(C)C)C(=O)N[C@@H](CC(=O)O)C(N)=O)C(C)C
Description: as §3
The source holds these as a separate data set.

B1: Tyrosine-protein phosphatase non-receptor type 11 (Homo sapiens), Q06124 (protein)
chain: MTSRRWFHPNITGVEAENLLLTRGVDGSFLARPSKSNPGDFTLSVRRNGAVTHIKIQNTGDYYDLYGGEKFATLAELVQYYMEHHGQLKEKNGDVIELKYPLNCADPTSERWFHGHLSGKEAEKLLTEKGKHGSFLVRESQSHPGDFVLSVRTGDDKGESNDGKSKVTHVMIRCQELKYDVGGGERFDSLTDLVEHYKKNPMVETLGTVLQLKQPLNTTRINAAEIESRVRELSKLAETTDKVKQGFWEEFETLQQQECKLLYSRKEGQRQENKNKNRYKNILPFDHTRVVLHDGDPNEPVSDYINANIIMPEFETKCNNSKPKKSYIATQGCLQNTVNDFWRMVFQENSRVIVMTTKEVERGKSKCVKYWPDEYALKEYGVMRVRNVKESAAHDYTLRELKLSKVGQGNTERTVWQYHFRTWPDHGVPSDPGGVLDFLEEVHHKQESIMDAGPVVVHCSAGIGRTGTFIVIDILIDIIREKGVDCDIDVPKTIQMVRSQRSGMVQTEAQYRFIYMAVQHYIETLQRRIEEEQKSKRKGHEYTNIKYSLADQTSGDQSPLPPCTPTPPCAEMREDSARVYENVGLMQQQKSFR
Broadly, the kcat/Km is the turnover number divided by the Michaelis constant. By kcat is commonly meant the maximal rate divided by the concentration of active sites. The Km is the concentration of substrate that gives half-maximal velocity. In the case of B1, the kcat/Km was 6 to 6.4 M⁻¹ s⁻¹ in data set [1] and 270 M⁻¹ s⁻¹ in data set [2]. In addition, the kcat in data set [3] stood at 0.0045 s⁻¹; in data set [4], 0.059 s⁻¹. For the same protein, the Km in data set [5] was found to be 700 µM; in data set [6], 220 µM.

Values taken from ChEMBL document CHEMBL4433268, “Rational design of a SHP-2 targeted, fluorogenic peptide substrate” (Bioorg Med Chem Lett, 2019).
